# ± gives the half width of the 95% confidence interval.
# Tests used:
# [1] = folding stability dG unfold from trypsin proteolysis; higher = more stable
# How it was run: (§1)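 Designed mini-proteins (under 80 residues, no cysteine) in a PA-tagged cDNA display construct were digested with trypsin and chymotrypsin. Each protease was used at 11 concentrations (threefold dilutions) plus a no-protease condition, followed by sequencing. K50 was inferred by Bayesian fitting of sequencing counts, and unfolding free energy was derived against a sequence-predicted unfolded-state K50 and a shared folded-state K50, per protease or combined. Only designs with AlphaFold2 dimer inter-PAE above 15 were kept.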
# [2] = folding stability dG unfold from chymotrypsin proteolysis; higher = more stable
# How it was run: as §1
# [3] = folding stability dG unfold (combined trypsin and chymotrypsin); higher = more stable
# How it was run: as §1
Sequence,folding stability dG unfold [1] [kcal/mol],folding stability dG unfold [2] [kcal/mol],folding stability dG unfold [3] [kcal/mol]
SAGGSAGGSAMTITKTITFSSKEEAEKFVKELEEKGNITITMTYEKLPSGKYKVTVTITKPSAGGSAGGSAG [r3_273_JUSTAS],3.62 ± 0.21,3.71 ± 0.049,3.68 ± 0.2
SAGGSAGGSAMTIVVKSEEEAKKLAELLNAEVVEEKDGYLTIKLEGMSEEERKKILELLKKSAGGSAGGSAG [r3_398_TrROS_Hall],1.96 ± 0.13,3.03 ± 0.17,2.71 ± 0.11
SAGGSAGGSAMTLKEKAEAIEKEKGVKITVTVTYPDGTVRTLTPEELSSIPPGPYTLSFTTPSAGGSAGGSA [r18_394_JUSTAS],1.73 ± 0.023,1.44 ± 0.16,1.67 ± 0.099
SAGGSAGGSAMTPPEELKEKIAAEVSPDTTVTETFPEEPLVVKITRNPSGTITVEVVSPEELSAGGSAGGSA [r18_61_JUSTAS],-0.418 ± 0.11,0.906 ± 0.049,0.546 ± 0.088
SAGGSAGGSAMTPVTTTQTISFPGSEEEARAEAERIREELEAKGLTVSFEFLPGGTLKITVASAGGSAGGSA [r18_262_JUSTAS],3.18 ± 0.064,2.398 ± 0.021,2.74 ± 0.038
SAGGSAGGSAMTRDVTIKVPPGVTPEEVFEKLKKENPNVTSYTTTTLPDGTITVTITIEDSSAGGSAGGSAG [r3_371_JUSTAS],3.94 ± 0.23,4.04 ± 0.12,4.05 ± 0.19
SAGGSAGGSAMTVPLDTLTPERLRELLAENPERVVLKSADSVLVLSRDPATGRLTVTSHELRSAGGSAGGSA [r18_75_JUSTAS],0.951 ± 0.011,1.35 ± 0.014,1.22 ± 0.022
SAGGSAGGSAMVLNVPLEELLKLLGVPKEEVSYKKLEDESYELTLPDGTKVKVIVPKEILESAGGSAGGSAG [r3_477_JUSTAS],2.81 ± 0.098,2.86 ± 0.036,2.91 ± 0.13
SAGGSAGGSAMYTISYDPSTGTVTVSTPSGTTTTVPVADGPVTLTVTNPDGTTTTITLEGASAGGSAGGSAG [r3_499_JUSTAS],2.56 ± 0.093,2.42 ± 0.029,2.44 ± 0.068
SAGGSAGGSAMYVKVTFTYPDGSTTTVTTQLDEEEAKKLVEELAPLPVEAKLEIIPEDVPESAGGSAGGSAG [r3_35_JUSTAS],0.344 ± 0.073,0.249 ± 0.23,0.655 ± 0.17
SAGGSAGGSANFKILAVEVQPAGNGIMVRAIIEFPDGWIIKFSFWFRNDGIKINIEIVPLDDSAGGSAGGSA [r18_79_TrROS],4.7 ± 0.15,5.7 ± 0.12,5.68 ± 0.17
SAGGSAGGSANGWVFMIHFNIEQEPVPAEELGMPPGDPGYEDMYVIKIKSISFFWVPAGDFSAGGSAGGSAG [r3_488_TrROS],3.27 ± 0.09,4.72 ± 0.12,4.38 ± 0.085
SAGGSAGGSAPATITSIEVEERTGPDGRTYRVLRVRLADTGEEVEIVVPGMSLEEVLAALASSAGGSAGGSA [r18_345_TrROS_Hall],2.86 ± 0.031,2.937 ± 0.019,2.93 ± 0.082
SAGGSAGGSAPETSLTSTFEFRFEVDGELYAVRIERRVLLSADGDLRVETRIEIIPIPPDVPASAGGSAGGS [r12_927_TrMRF],3.72 ± 0.13,5.1 ± 0.12,4.79 ± 0.11
SAGGSAGGSAPFNINDPNIGEVEIFPGPNAVILIKLPDGGYLVITNNGEDNVSIELVSDDESAGGSAGGSAG [r3_62_TrMRF],1.72 ± 0.13,0.468 ± 0.16,1.15 ± 0.15
SAGGSAGGSAPFQIEDIEVEYHRMPPGMPYYPVRARLPGTGREVEIHMPGMPVEDVLDRIIDSAGGSAGGSA [r18_345_TrROS],-0.446 ± 0.13,-0.0225 ± 0.088,-0.141 ± 0.061
SAGGSAGGSAPKIIVVKPEDIVEAVKKADPNEKVLLFDPETGEIYEITPDKMEFIEKIPPGESAGGSAGGSA [r18_246_TrMRF],0.0456 ± 0.13,0.884 ± 0.039,0.466 ± 0.22
SAGGSAGGSAPMKIDEITDVYPNPNRPKIIIKWRGPNGQPMVFDPENGKWMTPEEALDALKSAGGSAGGSAG [r3_206_TrROS],0.571 ± 0.059,1.12 ± 0.062,0.935 ± 0.046

Sequence,folding stability dG unfold [1] [kcal/mol],folding stability dG unfold [2] [kcal/mol],folding stability dG unfold [3] [kcal/mol]
SAGGSAGGSAPNLKLKIKLDIHVFPDGWLYVSTKIEIENPGKPVEFTIMFRFPIPPNEPAPSAGGSAGGSAG [r3_383_TrROS],3.85 ± 0.27,5.35 ± 0.15,5.16 ± 0.27
SAGGSAGGSAPNQTWVLRITIKFPNGKKRSFQFTFPLDDIKEEIEEEFGIDDIDIEWQPLDSAGGSAGGSAG [r3_220_TrROS],2.63 ± 0.061,2.77 ± 0.069,2.84 ± 0.12
SAGGSAGGSAPPGQEFPFEPVEEESIPIYDPDNGEPPLTISVWKMRMPGGPPMTFIMISPMSAGGSAGGSAG [r3_166_TrROS],1.92 ± 0.034,2.32 ± 0.043,2.17 ± 0.069
SAGGSAGGSAPPGQQLRVRIRIYNPNNGEPKREREFPGMTVDDLKEWAQKNGWRIREIEVDSAGGSAGGSAG [r3_423_TrROS],0.559 ± 0.1,1.49 ± 0.2,1.3 ± 0.095
SAGGSAGGSAPPLKIVIRIEFPDPNGKKQEYEIPADYPLEQVKDNAEEPFPGAKIENIEVVSAGGSAGGSAG [r3_60_TrROS],1.02 ± 0.057,1.33 ± 0.071,1.21 ± 0.049
SAGGSAGGSAPPNVEIKLTMEPYKPPDGNKYYRIPIEVNKKPWQAKEIADWLQPEGFRIEPSAGGSAGGSAG [r3_157_TrROS],0.238 ± 0.18,0.152 ± 0.41,0.151 ± 0.23
SAGGSAGGSAPPPAKVKVITITETRVTYDPDTDELTVETVTLTLVVAPDGHIYVDGRWIPAEDLSAGGSAGG [r6_514_TrROS_Hall],2.89 ± 0.064,3.68 ± 0.14,3.37 ± 0.11
SAGGSAGGSAPPVVRVTVPLPDGSVLEVEYFPDTGLVRVTLVDADGTPTTVTLPAAEVLALFSAGGSAGGSA [r18_219_TrMRF],2.04 ± 0.042,3.026 ± 0.019,2.73 ± 0.045
SAGGSAGGSAPRPIEIMFPWDSPEDAHEEAEEIARTFAQEDNIKVKVEYYPREGWVKVKIRVSAGGSAGGSA [r18_368_TrROS],1.21 ± 0.085,1.57 ± 0.34,1.38 ± 0.21
SAGGSAGGSAPVIRIEVDGKVYEIPADVLKEKGLTIEELAEELEKKHNIKVEKVEDGTIRVTSAGGSAGGSA [r18_7_TrROS_Hall],1.66 ± 0.067,2.41 ± 0.039,2.1 ± 0.078
SAGGSAGGSAPVPINITFPDGSVAVNGSPDVAYLYFPEKGTIYRIPIDPDTNIITIEEVFKVPSAGGSAGGS [r12_539_TrMRF],0.744 ± 0.043,1.03 ± 0.067,0.964 ± 0.05
SAGGSAGGSAPYFVRIKIENPDNGKPHSIEIPPNMTPEQAKEMAEELAEMHGWKITDVEYFPSAGGSAGGSA [r18_322_TrROS],0.227 ± 0.088,0.433 ± 0.11,0.371 ± 0.068
SAGGSAGGSAQWVIRIKMPNGSTRELRIPGMTPEKAREIAKELADQNNIKDVDIYPPGQKISAGGSAGGSAG [r3_160_TrROS],0.981 ± 0.041,0.393 ± 0.17,0.727 ± 0.1
SAGGSAGGSAREPPEAELVDERERTRPDGRPYTIAILRNPRDPREYLRIPGLGEWYPLDKLSAGGSAGGSAG [r3_181_TrMRF],-0.574 ± 0.28,0.431 ± 0.22,0.126 ± 0.12
SAGGSAGGSARIYVTLPDGTVLEVEFEGEEEAERVAEEIEAELKEKGIEPKSITIEPVSPEEGSAGGSAGGS [r12_301_JUSTAS],0.723 ± 0.053,1.69 ± 0.075,1.27 ± 0.16
SAGGSAGGSARRDEVVERARERLLEEHPDLKPGETATVVVRDPETDEVYVFRFDGDGRVYGSAGGSAGGSAG [r3_441_TrMRF],0.59 ± 0.09,1.59 ± 0.11,1.31 ± 0.16
SAGGSAGGSASAEEEARRLAPEGKLVYKITKGNETTIVALTPEEAEALKKKNPDVEIEPILLSAGGSAGGSA [r18_198_JUSTAS],1.37 ± 0.035,3.176 ± 0.021,2.81 ± 0.087
SAGGSAGGSASAEIVPLTLTFPVKFKKDPNGKTKEKTVEVKIELYVIRDPNGNLYTIAKISLSAGGSAGGSA [r18_284_TrMRF],3.01 ± 0.14,4.24 ± 0.089,3.98 ± 0.15

# Reference: the supplement of paper PMC12764529
